Measured values from patent publication US6380162B1, “Ice inhibiting peptides” (Applied Research Systems ARS Holding N.V., priority 1999, dated 2002).

T1: ICE (Homo sapiens, UniProt P29466)
T1 sequence (P29466 120-404): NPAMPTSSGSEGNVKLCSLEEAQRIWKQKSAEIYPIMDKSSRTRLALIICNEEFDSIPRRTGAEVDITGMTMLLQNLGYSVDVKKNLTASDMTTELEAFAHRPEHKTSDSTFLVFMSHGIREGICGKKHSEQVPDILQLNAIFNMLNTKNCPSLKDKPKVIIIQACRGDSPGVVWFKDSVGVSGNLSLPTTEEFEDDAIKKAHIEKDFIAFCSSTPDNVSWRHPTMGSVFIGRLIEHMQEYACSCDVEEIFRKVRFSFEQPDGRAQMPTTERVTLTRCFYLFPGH


What was measured:
ICE = target: T1, ICE; assay: Inhibition of ICE cleavage of pIL-1β, SDS-PAGE and Western blotting; type: biochemical; parameters: expressed in transfected cells; host or cells: COS-7 cells transfected with pSG5-ICE cDNA, or alternatively lysate of freshly isolated human monocytes; details: pIL-1β 5 ng incubated with ICE; peptides 100, 300 or 1,000 μM; Western blotting
Protocol: cDNA coding for human ICE has been amplified by PCR. The sequence was confirmed and the cDNA was subcloned into pSG5 expression vector. COS cells were transfected with empty vector (mock) or vector containing ICE cDNA and after 48 hours, cells were analysed for the expression of ICE specific mRNA.
A monocyte lysate, prepared as previously described (11), was also able to convert pIL-1β into a mature form (FIG. 2). Therefore, recombinant ICE or freshly isolated human monocytes were used as a source of ICE enzymatic activity for further experiments.
A source of ICE activity was prepared and its ability to cleave pIL-1β was tested by incubating the reaction at 37° C. for 1 hour. The mixture was then run on SDS-PAGE and the presence of pIL1-β or the mature form was evidenced by Western Blotting.

[1] = target: Human recombinant IL-1β precursor, P01584
Sequence of Human recombinant IL-1β precursor, P01584 (P01584 whole entry, looked up): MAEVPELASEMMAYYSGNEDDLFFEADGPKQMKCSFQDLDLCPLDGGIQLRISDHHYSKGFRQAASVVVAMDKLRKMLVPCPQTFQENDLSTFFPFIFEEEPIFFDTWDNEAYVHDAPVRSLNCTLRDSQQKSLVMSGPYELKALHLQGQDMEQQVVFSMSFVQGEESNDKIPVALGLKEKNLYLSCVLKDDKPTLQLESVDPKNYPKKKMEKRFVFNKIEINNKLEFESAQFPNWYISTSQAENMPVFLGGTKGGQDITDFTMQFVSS

inhibition of ICE activity (FIG. 6) (ICE) | Molecule | conversion of pIL-1β into the mature form (Western blotting after 60 minutes at 37° C.) [1]
inhibition of ICE activity | peptide S: SEQ ID NO:5, identical to peptide C except for two Ala substituting the two Asp residues (MALAALYEEGGGGGGEGEDNAASK) | –
inhibition of ICE activity | peptide C: SEQ ID NO:4, designed on the basis of icIL-1raII sequence (MALADLYEEGGGGGGEGEDNADSK) | –
– | ICE (Interleukin-1β-Converting Enzyme), human (protein) MADKVLKEKRKLFIRSMGEGTINGLLDELLQTRVLNKEEMEKVKRENATVMDKTRALIDSVIPKGAQACQICITYICEEDSYLAGTLGLSADQTSGNYLNMQDSQGVLSSFPAPQAVQDNPAMPTSSGSEGNVKLCSLEEAQRIWKQKSAEIYPIMDKSSRTRLALIICNEEFDSIPRRTGAEVDITGMTMLLQNLGYSVDVKKNLTASDMTTELEAFAHRPEHKTSDSTFLVFMSHGIREGICGKKHSEQVPDILQLNAIFNMLNTKNCPSLKDKPKVIIIQACRGDSPGVVWFKDSVGVSGNLSLPTTEEFEDDAIKKAHIEKDFIAFCSSTPDNVSWRHPTMGSVFIGRLIEHMQEYACSCDVEEIFRKVRFSFEQPDGRAQMPTTERVTLTRCFYLFPGH | A monocyte lysate, prepared as previously described (11), was also able to convert pIL-1β into a mature form
